A word on the EC50: it is the midpoint of the concentration-response curve. Higher therefore signals lower potency in that assay. By EC50 (read off the curve) is commonly meant the concentration needed to bring the measured effect to its halfway point. A higher EC50 (read off the curve) goes with a need for much substance. A word on the Kd: it is a measure of binding affinity in units of concentration. Higher therefore signals lower affinity. The term koff denotes a measure of how fast the partners let go of each other. Higher therefore signals fast dissociation. By kon is commonly meant the second-order rate constant of association. A higher kon goes with fast association.

Data on eight molecules can be found in patent publication US20250177546A1 (SANYOU BIOPHARMACEUTICALS, published 2025).

Assay [1] has as its target T1, huROR1-His (human ROR1 ECD AA30-406 with C-terminal His tag, made in house) (human, UniProt Q01973 30-406).
T1 construct: range 30-406; Expressed in HEK293; also called antigen protein huROR1-His; not shown: C-terminal His tag
Put plainly: ELISA, huROR1-His coated at 2 µg/mL, goat anti-human Fc-HRP, OD450. The procedure:
(§1) 96-well ELISA plate was coated with 2 μg/mL huROR1-His (30 μL/well) at 4° C. overnight. The next day, the plate was washed three times with PBST and then blocked with 5% skim milk for 2 h. […] After washing with PBST for three times, the secondary antibody Goat-anti-human Fc-HRP (abcam, ab97225) was added and incubated for 1 h. After incubation, the plate was washed with PBST for 6 times and TMB (SurModics, TMBS-1000-01) was added for color development. According to the color development results, 2 M HCl was added to terminate the reaction, and the data were read at OD450 using a microplate reader (Molecular Devices, SpecterMax 190).
(In an ELISA, binding on a coated surface is turned into a signal by an enzyme label.)

Assay [2] addresses T2, human ROR1 on cells (full-length human ROR1 on huROR1-HEK293 cells; human ROR1 on A549 and HT-29 tumor cells) (human, UniProt Q01973 30-937).
T2 construct: whole, on cells; also called hROR1-HEK293T; A549 tumor cells
Put plainly: flow cytometry (FACS) on huROR1-HEK293 cells, anti-human IgG-Fc secondary antibody, MFI. The procedure:
(§2) In this example, the binding activity of the antibody was evaluated using two types of cells, huROR1-HEK293 cells over-expressing human ROR1 and A549 tumor cells.
(§3) The specific method was as follows: huROR1-HEK293 cells or A549 cells in the logarithmic growth phase were prepared to a single-cell suspension, the density was adjusted to 1×10⁶ cells/mL, then 100 μL/well cells were added to a 96-well round-bottom plate, centrifuged at 4° C., 300 g, and the supernatant was removed. […] After the incubation, the cell mixture was washed three times and then 100 μL of 1:300 diluted secondary antibody Goat F(ab′)₂ Anti-Human IgG-Fc (abcam, ab98596) was added. The mixture was incubated at 4° C. in the dark for 30 min. After washing three times, the cells were detected by flow cytometry (Beckman, CytoFLEX AOO-1-1102).
In general terms: A flow cytometer gives signals particle by particle.

Assay [3] deals with T1, huROR1-His (human ROR1 ECD AA30-406 …). Nature of the assay: Gator (BLI) Advanced Kinetics; antibody 30 nM, huROR1-His 480-7.5 nM. The procedure: First, Q buffer was prepared with PBS (10 mM pH7.4) (IgG-free, purchased from Jackson ImmunoResearch Lab)+0.02% Tween 20 (purchased from thermo)+0.2% BSA (purchased from source culture), and the stock solution of the test antibody was diluted with the prepared Q buffer to a working solution with a final concentration of 30 nM, the stock solution of the antigen protein huROR1-His was prepared with Q buffer into a working solution with multiple dilutions (480, 240, 120, 60, 30, 15, 7.5 nM), and detection and analysis was then performed with Gator instrument and its accompanying software, selecting the Advanced Kinetics experimental mode is used.

Assay [4] deals with T3, MusROR1-His (mouse ROR1 ECD AA30-406 with C-terminal His tag) (mouse, UniProt Q9Z139 30-406).
T3 construct: range 30-406; Expressed in HEK293; also called mouse ROR1 antigen protein; not shown: C-terminal His tag
Put plainly: ELISA, MusROR1-His coated at 2 µg/mL, goat anti-human Fc-HRP, OD450. The procedure:
as §1, with “MusROR1-His” for “huROR1-His”

Assay [5] deals with T4, huROR2-His (human ROR2 ECD AA34-403 with C-terminal His tag) (human, UniProt Q01974 34-403).
T4 construct: range 34-403; Expressed in HEK293; also called human ROR2 antigen protein; not shown: C-terminal His tag
Nature of the assay: ELISA, huROR2-His coated at 2 µg/mL, goat anti-human Fc-HRP, OD450. On the procedure:
as §1, with “huROR2-His” for “huROR1-His”, “TMBS-1000-0)” for “TMBS-1000-01)”

Assay [6] concerns the target T2, human ROR1 on cells (full-length human …). Put plainly: flow cytometry (FACS) on A549 tumor cells, anti-human IgG-Fc secondary antibody, MFI. The procedure: as §2, §3

T2 sequence (Q01973 30-937): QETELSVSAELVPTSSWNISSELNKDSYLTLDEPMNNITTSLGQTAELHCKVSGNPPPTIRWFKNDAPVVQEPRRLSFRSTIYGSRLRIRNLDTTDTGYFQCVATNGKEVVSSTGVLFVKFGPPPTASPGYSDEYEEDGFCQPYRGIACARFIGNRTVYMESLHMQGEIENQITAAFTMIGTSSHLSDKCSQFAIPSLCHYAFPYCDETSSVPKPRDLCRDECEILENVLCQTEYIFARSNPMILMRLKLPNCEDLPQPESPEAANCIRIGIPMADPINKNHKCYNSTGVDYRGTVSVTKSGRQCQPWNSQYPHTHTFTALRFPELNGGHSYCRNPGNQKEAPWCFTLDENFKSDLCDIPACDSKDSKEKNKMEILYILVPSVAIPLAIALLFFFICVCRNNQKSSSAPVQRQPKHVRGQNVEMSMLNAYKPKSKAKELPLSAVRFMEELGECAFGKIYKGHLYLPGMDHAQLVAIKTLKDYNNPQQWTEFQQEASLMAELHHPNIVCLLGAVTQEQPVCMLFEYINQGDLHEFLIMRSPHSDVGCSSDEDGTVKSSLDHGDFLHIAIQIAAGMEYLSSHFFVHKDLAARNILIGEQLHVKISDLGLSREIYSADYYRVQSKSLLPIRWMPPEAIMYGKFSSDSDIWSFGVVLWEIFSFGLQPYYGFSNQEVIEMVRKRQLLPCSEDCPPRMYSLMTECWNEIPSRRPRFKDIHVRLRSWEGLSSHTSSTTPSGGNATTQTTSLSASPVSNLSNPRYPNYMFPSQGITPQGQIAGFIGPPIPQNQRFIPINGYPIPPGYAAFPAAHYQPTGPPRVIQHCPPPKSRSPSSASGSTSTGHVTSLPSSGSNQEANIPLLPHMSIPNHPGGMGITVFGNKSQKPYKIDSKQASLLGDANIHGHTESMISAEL
T1 sequence (Q01973 30-406 limits assumed): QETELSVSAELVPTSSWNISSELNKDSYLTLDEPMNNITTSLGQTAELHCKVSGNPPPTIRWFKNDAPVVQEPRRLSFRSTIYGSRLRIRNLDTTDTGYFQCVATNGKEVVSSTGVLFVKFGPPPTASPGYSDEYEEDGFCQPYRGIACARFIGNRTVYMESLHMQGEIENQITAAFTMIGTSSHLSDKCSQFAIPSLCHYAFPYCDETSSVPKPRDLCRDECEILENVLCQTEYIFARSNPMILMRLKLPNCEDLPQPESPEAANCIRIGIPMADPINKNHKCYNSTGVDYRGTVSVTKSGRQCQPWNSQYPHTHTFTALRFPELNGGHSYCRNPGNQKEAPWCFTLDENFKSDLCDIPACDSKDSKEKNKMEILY
T3 sequence (Q9Z139 30-406 limits assumed): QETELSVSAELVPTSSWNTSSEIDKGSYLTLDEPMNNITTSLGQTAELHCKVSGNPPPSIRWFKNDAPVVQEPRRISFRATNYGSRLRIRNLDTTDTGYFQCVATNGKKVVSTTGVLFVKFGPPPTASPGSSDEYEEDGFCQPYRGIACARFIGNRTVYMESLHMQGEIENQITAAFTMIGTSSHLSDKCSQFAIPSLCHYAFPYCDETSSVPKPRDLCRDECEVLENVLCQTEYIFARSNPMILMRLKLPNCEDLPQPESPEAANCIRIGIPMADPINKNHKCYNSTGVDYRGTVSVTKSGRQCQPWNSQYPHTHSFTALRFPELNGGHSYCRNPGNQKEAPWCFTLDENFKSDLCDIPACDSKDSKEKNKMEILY
T4 sequence (Q01974 34-403 limits assumed): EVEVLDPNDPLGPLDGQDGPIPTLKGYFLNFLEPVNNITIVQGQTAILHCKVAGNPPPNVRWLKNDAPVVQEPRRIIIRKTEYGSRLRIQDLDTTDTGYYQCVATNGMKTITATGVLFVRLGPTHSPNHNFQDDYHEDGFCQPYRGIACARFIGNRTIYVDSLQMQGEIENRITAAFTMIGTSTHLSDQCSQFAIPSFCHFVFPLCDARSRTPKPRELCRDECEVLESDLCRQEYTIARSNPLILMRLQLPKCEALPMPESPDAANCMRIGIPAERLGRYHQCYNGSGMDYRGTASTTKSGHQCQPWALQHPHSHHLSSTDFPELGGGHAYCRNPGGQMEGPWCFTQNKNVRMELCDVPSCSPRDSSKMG

B1: B32 (chimeric antibody) (antibody, human IgG1, kappa, V domains shown)
VH: EVKLMESGGGLVKPGGSLKLSCAASGFAFSSYAMSWVRQTPDKRLEWVASINRDVTTYYPDSMKGRFTISRDNARNILYLQMSSLRSEDTAMYYCARGYYYGGGPYWHFDVWGAGTTVTVSS
VL: DIQITQSPSSMYASLGERVTITCKASQDINSYLTWFQQKPGKSPKTLIYRANRLVDGVPSRFSGSGSGQDYSLTISSLEYEDMGIYYCLQFDEFPYTFGGGTKLEIKR
notes: ExpiCHO expression
Turning to B1, the response in assay [1] was half-maximal at 0.00575 µg/mL (EC50). Also, in assay [2], the “EC50 (read off the curve)” value was about 0.1 µg/mL. For the same molecule, in assay [3], the Kd came to 1.25 nM, the koff amounted to 0.000377 s⁻¹ and the kon was found to be 301000 M⁻¹ s⁻¹. The 50% effective concentration (EC50 (read off the curve)) in assay [4] was about 0.04 µg/mL. Further, the binding result in assay [5] is recorded as “no binding (tested: 1 µg/mL)”. The “EC50 (read off the curve)” value in assay [6] is about 0.02 µg/mL.

B2: B34 (chimeric antibody) (antibody, human IgG1, kappa, V domains shown)
VH: EVQLVESGGGLVQPKGSLKLSCAASGFTFSRYAMSWVRQTPEKRLEWVASISTGGSPYYPDSVKGRFTISRDNARNILYLQMSSLKSEDTAMYYCARGYYYNSSPHWYFAVWGAGTSVTVSS
VL: DIQMTQSPSSLSASLGERVTITCKASQDINSYLSWFQQKPGKSPKTLIYRANRLVDGVPSRFSGSGSGQDYSLTISSLEYEDMGIYYCLQYDEFPYTFGGGTKLEIKR
notes: ExpiCHO expression
As for B2, the response in assay [1] was half-maximal at 0.00628 µg/mL (EC50). In addition, in assay [2], the 50% effective concentration (EC50 (read off the curve)) was about 0.2 µg/mL. In assay [3], this molecule registered a Kd of 2.52 nM, a koff of 0.000609 s⁻¹ and a kon of 241000 M⁻¹ s⁻¹. Also, the binding result in assay [4] is listed as “no binding (tested: 1 µg/mL)”. For the same molecule, the binding result in assay [5] is given as “no binding (tested: 1 µg/mL)”. Further, the “EC50 (read off the curve)” value in assay [6] was about 0.04 µg/mL.

B3: C38 (chimeric antibody) (antibody, human IgG1, kappa, V domains shown)
VH: EVMLVESGGGLVRPGGSLKLSCAASGFTFSSYAMSWVRQTPDKRLEWVASINRDVTTYYPDSVKGRFTISRDNARNILYLQMSSLRSEDTAMYYCARDYYYGSSLYYGMDYWGQGTSVTVSS
VL: DIQMTQSPSSMHASLGERVTITCKASQDINNYVSWFQQKPGKSPKTLIYRANRLVDGVPSRFSGSGSGQDYSFTISSLEYEDMGIYYCLQFDEFPYTFGGGTKLEIKR
notes: ExpiCHO expression
In the case of B3, in assay [1], the midpoint of the response, the EC50, lay at 0.00371 µg/mL. In assay [2], the “EC50 (read off the curve)” value was about 0.1 µg/mL. Also, in assay [3], the affinity, expressed as Kd, was 1.34 nM; the koff was determined as 0.000422 s⁻¹; the kon came to 314000 M⁻¹ s⁻¹. In addition, in assay [4], the “EC50 (read off the curve)” value was about 0.03 µg/mL. Besides, the binding result in assay [5] is listed as “no binding (tested: 1 µg/mL)”. Besides, in assay [6], the “EC50 (read off the curve)” value was about 0.02 µg/mL.

B4: M71 (chimeric antibody) (antibody, human IgG1, kappa, V domains shown)
VH: EVMLVESGGGLVKPGGSLKLSCAASGFTFSRYAMSWVRQTPEKRLEWVASINRGGTTYYPDSVKGRFTISRDNARDILYLQMSSLRSEDTAIYYCARDYYYGSSLYNGMDFWGQGTSVIVSS
VL: DIQMTQSPSSMYASLGERVTITCKASQDINSYLSWFQQKPGKSPKTLIYRANRLVDGVPSRFSGSGSGQDYSLTISSLESEDMGIYYCLQFDEFPYTFGGGTKLEIKR
notes: ExpiCHO expression
B4 registered an EC50 in assay [1] of 0.0077 µg/mL. Also, the “EC50 (read off the curve)” value in assay [2] was about 0.08 µg/mL. In assay [3], this molecule gave a Kd of 1.54 nM, a koff of 0.00054 s⁻¹ and a kon of 351000 M⁻¹ s⁻¹. Besides, the binding result in assay [4] is given as “no binding (tested: 1 µg/mL)”. Moreover, the binding result in assay [5] is listed as “no binding (tested: 1 µg/mL)”. Besides, in assay [6], the “EC50 (read off the curve)” value was about 0.01 µg/mL.

B5: B39 (chimeric antibody) (antibody, human IgG1, kappa, V domains shown)
VH: EVKLVESGGGLVKPGGSLKLSCAASGFTFSTYAMSWVRQTPEKRLEWVASISTGASTYYPDSVKGRFTISRDNARNILYLQMSSLRSEDTAMYYCAREETTTAALYYAMDYWGQGTSVTVSS
VL: DIKITQSPSSMYASLGERVTITCKASQDINNYLSWFQQKPGKSPKTLIYRANRLVDGVPSRFSGSGSGQDYSLTISSLEYEDMGIYYCLQFDEFPYTFGGGTKLEIKR
notes: ExpiCHO expression
The molecule B5 returned a concentration for a half-maximal effect (EC50) in assay [1] of 0.00552 µg/mL. For the same molecule, the “EC50 (read off the curve)” value in assay [2] was about 0.1 µg/mL. Besides, in assay [3], the Kd worked out at 4.43 nM, the koff turned out to be 0.00135 s⁻¹ and the kon is 304000 M⁻¹ s⁻¹. In addition, the binding result in assay [4] was “no binding (tested: 1 µg/mL)”. The binding result in assay [5] was “no binding (tested: 1 µg/mL)”. In addition, the “EC50 (read off the curve)” value in assay [6] is about 0.01 µg/mL.

B6: C77 (chimeric antibody) (antibody, human IgG1, kappa, V domains shown)
VH: EVKLVESGGGLVKPGGSLKLSCAASGFSFSNYAMSWVRQTPEKRLEWVASINSGVTTYYPDSVKGRFTVSRDNARNILYLHMTGLRSEDTAIYYCSRGYYYGGSPYWHFDVWGAGTTVTVSS
VL: DIQMTQSPSSMHASLGERVTITCKASQDINNYVSWFQQKPGKSPKTLIYRANRLVDGVPSRFSGSGSGQDYSFTISSLEYEDMGIYYCLQFDEFPYTFGGGTKLEIKR
notes: ExpiCHO expression
Consider B6, for which it took 0.00603 µg/mL to reach a half-maximal effect in assay [1] (EC50). Also, in assay [2], the “EC50 (read off the curve)” value is about 0.1 µg/mL. In assay [3], this molecule returned an equilibrium dissociation constant (Kd) of 2.47 nM, a koff of 0.000774 s⁻¹ and an on-rate (kon) of 314000 M⁻¹ s⁻¹. Further, the binding result in assay [4] was “no binding (tested: 1 µg/mL)”. Further, the binding result in assay [5] is on record as “no binding (tested: 1 µg/mL)”. In addition, in assay [6], the “EC50 (read off the curve)” value was about 0.02 µg/mL.

B7: B74 (chimeric antibody) (antibody, human IgG1, kappa, V domains shown)
VH: EVMLVESGGNLVKPGGSLKLSCAASGFTFSIYAMSWVRQTPEKRLEWVASISGGGTAYYPDSVKGRFTISRDNARNILYLQMSSLRSEDTAIYYCARGYYYGGSPYWHFDVWGAGTTVTVSS
VL: DIKMTQSPSSMYASLGERVTITCKASQDINSYLSWFQQKPGKSPKTLIYRANRLVDGVPSRFSGSGSGQDYSLTISSLEYEDIGIYYCLQIDEFPYTFGGGTKLEIKR
notes: ExpiCHO expression
Consider B7, for which, in assay [1], the EC50 came out at 0.00513 µg/mL. Further, the “EC50 (read off the curve)” value is about 0.2 µg/mL in assay [2] and about 0.01 µg/mL in assay [6]. Further, in assay [3], the equilibrium dissociation constant (Kd) was 1.44 nM. Also, the koff in assay [3] turned out to be 0.000464 s⁻¹. The molecule also showed a kon in assay [3] of 323000 M⁻¹ s⁻¹. The binding result in assay [4] and in assay [5] was “no binding (tested: 1 µg/mL)” throughout.

B8: C42 (chimeric antibody) (antibody, human IgG1, kappa, V domains shown)
VH: EVMLVESGGGLVKPGGSLKLSCAASGFTFSNYIMSWVRQTPEKRLEWVATINSGGTNTYYPDSVKGRFTISRDNAKNSLYLQMNSLRSEDTALYYCTRYNGNYVWFAYWGQGTLVTVSA
VL: DIVLTQSPAIMSASPGEKVTMTCSASSSVSFIYWYQQKPGSSPRLLIYDTSNLASGVPVRFSGSGSGTSYSLTISRMEAEDAATYYCQQWSNYHFTFGSGTKLEIKR
notes: ExpiCHO expression
Regarding B8, the EC50 in assay [1] was 0.00203 µg/mL. In addition, the half-maximal effective concentration (EC50 (read off the curve)) is about 0.2 µg/mL in assay [2] and about 0.03 µg/mL in assay [6]. In addition, the Kd in assay [3] is 29.6 nM. This molecule had a dissociation rate constant (koff) in assay [3] of 0.00325 s⁻¹. In assay [3], this molecule had a kon of 110000 M⁻¹ s⁻¹. The binding result is on record as “binds” in assay [4] and “no binding (tested: 1 µg/mL)” in assay [5].
